Consider one substance from PMC10959958.

The target of the assay is 4-HNE-modified recombinant C99 with mutation Lys53Arg (human). Description: SDS-PAGE with Western blot; recombinant C99 or C99^Lys53Arg reacted with 50-fold (R)-4-HNE (25 mM HEPES, 150 mM NaCl, pH 7.4, 37 °C, 1 h); C99 detected by C1/6.1 antibody, adducts by 4-HNE antibody; oligomer bands on the gel.

In the case of “4-HNE-modified recombinant C99 with mutation Lys53Arg (domain or fragment)”, the stoichiometry N came out at 2.
